Experimental data as given in patent publication US20130039850A1.

What was measured:
[1] = target: recombinant soluble human CD4 (human) (UniProt P01730); experiment: BIAcore; rCD4 coupled to chip, mAb flowed (avidity)
[2] = target: recombinant soluble human CD4 (human) (UniProt P01730); experiment: SPR sensor chip; sCD4 amine-coupled, antibody flowed over

Ka [1]: 3.7e+10 M⁻¹
koff [1]: 4.2e-06 s⁻¹
kon [1]: 150000 M⁻¹ s⁻¹
Ka [2]: 3.7e+10 M⁻¹
koff [2]: 4.2e-05 s⁻¹
kon [2]: 150000 M⁻¹ s⁻¹
Substance: mouse anti-human CD4 monoclonal antibody Leu3a (Becton Dickinson)
